Values quoted from earlier work in PMC12224906.

Target: eIF5B CTD (Homo sapiens) (UniProt O60841)
UniProt O60841, sequence (O60841 1076-1220): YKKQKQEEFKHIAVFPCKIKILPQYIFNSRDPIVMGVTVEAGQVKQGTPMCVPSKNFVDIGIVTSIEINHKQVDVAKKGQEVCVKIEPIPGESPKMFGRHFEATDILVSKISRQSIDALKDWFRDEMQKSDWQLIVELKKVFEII

Kd: 500 nM
Substance: eIF5 CTT (from UniProt P55010)
